Experimental data reported in the DeepSol protein solubility set.

experiment: soluble on expression in E. coli; label from the status in PepcDB or PDB records

Soluble on expression in E. coli, not soluble:
MGSDKIHHHHHHMLKIELLESFIAVAECGNLSKAADKICRTQSTLSLQVKKLEESVGQTLLIRDNKGVTLTESGETLLNYAYKMMQLNSQAIDELKDCQNREVIRLGVPTDFIKCYLSSCLLEFIREFTSIELVIDTDVSGNLYKRLHQGEFDVIVATHWQVPTNGELLFTRRFKWVSAVEGNAHKRKTIPMGLYPENCPIRAQVFANHRLSMRPINVLLSTPSPQALCMAVENDLVIAPIAEFRITDQMQVLDPIEHGLPILPMFNESLYLNPDTQTYATLQLINLIKANVEHKGYQLD
MGSDKIHHHHHHMLKQKTLKDSFSLSGKGLHTGLDLTVTFNPAPDNHGYKIQRIDLEGQPTIDAVADNVTETTRGTVLSKNGVKVSTVEHGMAALYALGIDNCLIQVNGPEFPILDGSAQYYVQEIERVGTEEQSAVKDFYIIKSKIEFRDESTGSSIIVLPDENFSLNVLVSYDSTIIPNQFATLEDMHNFKDEVAASRTFVFVREIEPLLSAGLIKGGDLDNAIVIYERKMSQESYDKLADVMGVPHMDADQLGYINHKPLVWPNECARHKLLDVIGDLALIGKPIKGRIIATRPGHTINNKFARQMRKEIRLHEIQAPTYDCNREPVMDVNRIRELLPHRYPFQLVDKVIEMGASYIVGIKNITANEPFFQGHFPQEPVMPGVLQIEAMAQVGGLLVLNSVDEPERYSTYFMKIDGVKFRQKVVPGDTLLFRVELLAPIRRGISTMKGYAFVGEKVVCEAEFMAQIVKNK
MGSDKIHHHHHHMLLHSAWPRLLCPSPKAKHLKDPAMFELDHDLAQDIVDRAMAILPCNVNVMDSQGLILGSGEPERINTRHEGAQLVLANGRIVELDTDAAKCLKGVQPGVNLPLMLDGRLMGVLGLTGDPQQVRTYGELVRMTAEMLLAQRNLQADQQWRRQRCDDLLALLLGGSGNSPRLLDEARQLGLKPQLPRIPCLFEITSGPPAEALAAWLMSRYPDSWCVSPARQSLLWCRPAGVALDELRLLERLQRHGWDIERLALGSAAQSLEQLRRGYRRVRDLLAYGREVLPSERLLSLQRYRLPALLWRHRNDDALDELLEPLQRIRAKDSSGQLLATLRAWCAHDGQSQSCADALGIHRNSLRYRLERIAELGEVDPLRLEGMLSLYLGLQLLPTD
MGSDKIHHHHHHMLLTIDDVLTQEELAIARSMLARSAWVSGLVTAGTQAAQVKNNQQVQENDPQIVNLRRLVLGALNRNALFFTATLPEKIVPPFFNRYSGETNHYGFHVDNAMRLLPDGSGYVRTDVSATLFLSDPQEYDGGELVINDTFGQHGVKLQAGSMVIYPSSSIHQVTPVTRGERLACFMFIQSMVRNPDQRRLLYEMDMALLQLRQNIGETPAVVSLTGTYHNLLRQWADS
MGSDKIHHHHHHMLNRLRAFRERGWREVDAPTYAQAWQRFGGSVATHPLVVEQLAEMAGIPVRYLGWESAGELVAAIPTWGRHLALSKDVLKRRGKKGLYDLGNAELILPVAGDARIALRHAGRYLSALHERNIVTLRPQTEQLAFARAPEDFSKKFRYNQRREVRLVEEAGGQVRQADSFAPAEFAAIYLELFQRRWGFPATGAERMAEVFERLRELLRGSVLLLNDQPIAVQVLYRAEAPGWLSVEYINGGVDPQTREFSPGSVLSYLNTQAAWEDARALGKPLRYSFGRADREYKDRWCHPSPVFQV
MGSDKIHHHHHHMLPTLDGLPFHIAKAQGIYDSLGLDLTILSFNSAYDRDAAFQFKSMDGMITDYPSAVTLQAIHHTDLGIILKHDGYFCFIVSKESGINQLQELKEKNIAVSHNTIIEYATGQLLNKAGISQAEVNKPEIAQLPLRLQMLQYDQIDASFLPDPAASIAMNARHRSLISTQELGIDFTVTAFSREAINEKRREIELLITGYNLGIDYIKMHPQKEWKQVLIEIGVPENLTGLIALPVYRKAERPSADALDKAVTWLKTNNRIPQTYSGYKSLIDTTFIKTNSTTIK
MGSDKIHHHHHHMLQMIPARPSRALASLSEAYEECRQITARYAKTFYLGTLLMPEAKRQAIWAIYVWCRRTDELVDGPQAAQTNFATLDAWERRLERLFAGEPEDDCDVALVDTLARYPLDIQPFRDMIEGQRMDLLQNRYSTFEDLYTYCYRVAGTVGLMSQPVMGIESTNSRAPWDPTTPPDPTQEALALGIANQLTNILRDVGEDARRGRIYLPQEELAQFNYSEQDLFNGVIDDRWRAFMQFQLDRARDYFEQAERGIRQLSHDARWPVWASLMLYREILDVIEQNNYDVFRKRAYVPTWRKLCSLPVAMLRATVL
MGSDKIHHHHHHMLQNGYVPCSFRISMAGMDVEFNTKNDVIKAYLSRPDDGMRHPGIVVIHEIFGLDDHIRSVADRISREGYVALAPDLFSSHELSAKITREGILESMKFIMSIPPEKQRDDSYRNSLLNSMPEEKRRIMSSTYSALFVNRPTQLLTEYLEYAVDYLKGIGVTSVGSVGFCFGGGMSANLGCTGKVDATVIFYGENPDPIDKVKGMKSVLGLYAGEDHRITSRVPELLAKLIEFSIPVTIKVYPGAYHAFFNDTRPQIYNEAAAKDAWNMMLYFFRTQLGP
MGSDKIHHHHHHMLRVWVGSKPVGVLDRSGRRGSTFVYDVKADDRDAVSLTMPKRTESWNSEFGLLPIFDMNLPEGALEGKIRTAFAKALGHFDDLDLLAVVGRSQIGRIRFTGMDEELVEDVPFRSIDDLLRARRAGDLYNDLLETYAVHSGVAGVQPKVLVRAREDDPSDGRQSLSVRGATHIVKMWDPDEYPELAANEFFCLMAAQQVGLEVPDFRLSEDGLALVVERFDLTDGSYSGYEDFCALNGVTSKDKYNGGYETKLFKRIKEFVSPENAVGSLEVAFRLFVINCGIRNGDAHLKNFGVVYKDAESPVRLAPVYDLITTRAYIKNDAMALTLDGSTAWPDRKKLDRLGVTRANLRPGRVAEIVEQTCDALSDVSGRVKAYFEESSFPEVGEKMLREWQAGVGSLSEGKTIHLMEALDATSARND
MGSDKIHHHHHHMLSHRLQDTSLRYFLEVVRTGSLTEAAQRLNVTVSAVSRQVAALESWLGVPLFDRRPRGMVASAAGELLAAYALRNALEADRVVTEIDALQGLRRGRVRVASSAGFAIEFLPRAIADFRERYPGLHFHVRVAPPAEVTGIVLHGDADIGITYSRAAEQGIRVEHRQAAPVIAIMRPDHALARFRSITLSQMLPYPLALPEGDNTVRQLFDIACGERGVAFEPVLVSNQFETLTSFVLHGGGLSISGGVTVGDRLRRGELHAATIRERGMKSRAIELQTLAGRTLPEGVRTFLGFVRDRLVEEAGIGS
MGSDKIHHHHHHMLSIERQCQCMQLLIETFTVPIEIRALKTANIYRLETDDSAFLIDSGMSDNSIKSIEQNLKKIDFVFITHLHIDHLGGVLYLHEKYGIPAYMNHLDLDLIMNANEDRDGYIKRHSEIFRVNGVPPSMVEEIITMHPVIRYFDYYSKLDFVQDYRKINASGIKFVEVPGHSPGSTAVYIEDSRDLFAGDHILDRITPNIAVYGDEDDLGNYLESLEKVRAMKVDRIFPGHGNVITEPKIRIDDIEKHHHDRMRAIIAALKSPKTAYEVARDITWSKGRKMDTMNFMERNFAILETVSHLKHMDRKGMVRRIEENGIIKYSYIQ
MGSDKIHHHHHHMLSLKSEVLARHLPLFNGKSILLFGNVRDRFADQIRSISSHVAIFSHYFDYARHYNDVEFGLDCTTPANLGVFYWTKNKQECHYQLLQWLSQTAIGQQMLIIGENRAGVRSVEKLLSPFGQIAKIDSARRCGLYHFELQTIPQFDCQKFWKSYRLADLTVLSLPAAFSSTELDAGSQLLLSSFTNQDRLTGNVLDLGCGAGVIGAYLKQRFPAISLTMSDIHSMAIHSAQATLAKNKLTGTVIASDVFSHINDRFDLIVSNPPFHDDIDTAYHTVESLIMQAKNHLNYGGELRIVANAFLPYPDLLDKAFGSHQVVTKSNKFKVYSARV
MGSDKIHHHHHHMLSNLVSEFPQHEPRPANAPRALEGIRVVDFTHFIAGPFATMMLADMGAEVIKIEAPGRGDEFRYYPPAHPQDESIGAPYLWANRNKRSIALDLKHEDGRRIARELIATADVVAENFSTGVMERLGLGYEACRESNPELIYCSVSAYGREGAFADRLGFDPVAQAESGFVSMNGYPDRLGVRALSPVMDISTAMMASNAILGALVARERSGKGQAVEVSLFDNAVLMTGYATVQHLFTGDEPQRHGNTSPDTCPSGVFKASDGAFYINCGNNKIFHRLASQVLEMPELAADPVLADRNGRIARRDELFRILDEAFIRHPWAYWQQRMRAASIPCGEVRSVGEALRSAEARERKLVSRLEHPDLGWLPNISLPFRFSETPMEDPSPAPRIGEHSRDILTHVLGYEDDSASALLDSGVVYSSVEKARAG
